Series [1] deals with SlNADP-ME4a. The series can be described thus: initial velocity, spectrophotometric. In kind it is biochemical, Solanum lycopersicum. Conditions: pyruvate reductive carboxylation (reverse reaction); assay details not given.
Substrate in series [2]: CC(=O)C(=O)O
The series can be described thus: initial velocity, spectrophotometric. The format is biochemical, Solanum lycopersicum. Conditions: pyruvate reductive carboxylation (reverse reaction); assay details not given.

A word on the Km: it is the substrate concentration at which the rate is half of its maximum. Turning to `CC(=O)C(=O)O` [pyr], in series [1], the Km came to 15.5 ± 1 mM.

B1: SlNADP-ME2 (Solanum lycopersicum) (protein)
chain: MESALKDLSTPTGGVEDVYGEDCATEDQCITPWTIAVSSGYNLLRDPRYNKGLAFTERERDAHYLRGLLPPVISSQELQEKKLMQSIRQYDVPLHKYVAMMELEERNERLFYKLLIDNVEELLPIVYTPTVGEACQKYGSLFKRPQGLYISLNEKGRILEVLKNWPEKSIQVIVVTDGERILGLGDLGCQGMGIPVGKLALYTALGGVRPSACLPITIDVGTNNEKLLNDEFYIGLRQRRATGQEYYDFLHEFMSAVKQNYGEKILVQFEDFANHNAFELLAKYRTSHLVFNDDIQGTASVVLAGLIASLKLLGGALCDHTFLFLGAGEAGTGIAELIALEISNKTNIPVEETRKKIWLVDSKGLIVSGRKETLQAFKKPWAHEHEPVNNLLDAVKAVKPTVLIGTSGTGRTFTKEVVEAMACMNKRPLIMALSNPTSQAECTAEEAYTWSEGRAVFASGSPFPSFEYDGKLNIPGQANNCYIFPGFGFGLVMSGTIRVHDDMLLAASEALAAQVTEEHYAKGMIYPPFADIRKISAHIAASVAAKAYELGVATRLPRPADLVKYAESCMYTPNYRSYR
One may read the kcat as the maximal rate divided by the concentration of active sites. B1: in series [2], the Km came out at 5.0 ± 1.1 mM and the kcat stood at 26.5 ± 1.7 s⁻¹.

Values taken from article doi:10.1101/2025.02.12.637823v1 (biorxiv, 2025).
